The values that follow are results of earlier work, collected in patent US10543287.

The subject of data set [1] is jak3 ZFN pair (FokI) (synthetic construct). As to the kind of experiment: cell_activity. The following applies: CITED ref 58 somatic mutation rate in zebrafish embryos, mutant lines obtained here (Table 1), half-sites only highlighted in figure.
Data set [2] has as its system rag2 ZFN pair (FokI) (synthetic construct). The experiment in a line: cell_activity. As to conditions: CITED ref 58 somatic mutation rate in zebrafish embryos, mutant lines obtained here (Table 1), half-sites only highlighted in figure.

As for “TATTTCTGCGCAGAAGTGGCCCCACCAAGCCTGCTGGAGGACATACAGAATTA (double strand) [jak3 ZFN target]”, in data set [1], the activity is 1.4%.

“CCATGATCTTCTGCTCCAGGGGTGAAGGTGGACACTG (double strand) [rag2 ZFN target]”: the activity in data set [2] is 7.7%.
